Consider twelve molecules from patent US20200377595A1 (Chugai, published 2020).

One may read the Kd as the concentration at which binding is half-saturated.

Substitutions are numbered along the chain they refer to. Names and notes keep the numbering of the source. Values joined by “and” are separate entries in the source; they are usually repeats but may differ in a detail not shown here. Equal values may be shown once.

The target in assay [1] is biotinylated CD3 epsilon epitope peptide. In words: SPR, method of Ref. Ex. 3, one-arm Ab.
The target of assay [2] is T1, biotin-labeled cynomolgus monkey CD137 fused to human IgG1 Fc fragment (cynomolgus monkey; human, UniProt Q07011 24-186, limits assumed, biotin-labeled).
T1 construct: also called cyno CD137-Fc; not shown: human IgG1 Fc fragment
T1 chain: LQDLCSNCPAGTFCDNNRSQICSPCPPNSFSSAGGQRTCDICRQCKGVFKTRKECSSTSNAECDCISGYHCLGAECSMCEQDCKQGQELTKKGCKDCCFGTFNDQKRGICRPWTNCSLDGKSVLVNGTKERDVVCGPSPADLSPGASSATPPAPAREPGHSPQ
In words: ELISA, IgG. A general note: ELISA stands for enzyme-linked immunosorbent assay.

B1: CE115HA000 V11L/D72A/L78I/D101Q with GGS inserted between Kabat 99 and 100, one-arm antibody (antibody)
chain 1: QVQLVESGGGLVQPGRSLRLSCAASGFTFSNAWMHWVRQAPGKGLEWVAQIKAKSNNYATYYAESVKGRFTISRADSKNSIYLQMNSLKTEDTAVYYCRYVHYGAGGSYYGVQAWGQGTTVTVSSASTKGPSVFPLAPSSKSTSGGTAALGCLVKDYFPEPVTVSWNSGALTSGVHTFPAVLQSSGLYSLSSVVTVPSSSLGTQTYICNVNHKPSNTKVDKKVEPKSCDKTHTCPPCPAPEAAGGPSVFLFPPKPKDTLMISRTPEVTCVVVDVSHEDPEVKFNWYVDGVEVHNAKTKPREEQYASTYRVVSVLTVLHQDWLNGKEYKCKVSNKALPAPIEKTISKAKGQPREPQVYTLPPSRCELTKNQVSLSCAVKGFYPSDIAVEWESNGQPENNYKTTPPVLDSDGSFFLVSKLTVDKSRWQQGNVFSCSVMHEALHNHYTQKSLSLSPDYKDDDDK
chain 2: EPKSSDKTHTCPPCPAPELLGGPSVFLFPPKPKDTLMISRTPEVTCVVVDVSHEDPEVKFNWYVDGVEVHNAKTKPREEQYNSTYRVVSVLTVLHQDWLNGKEYKCKVSNKALPAPIEKTISKAKGQPREPQVCTLPPSRDELTKNQVSLWCLVKGFYPSDIAVEWESNGQPENNYKTTPPVLDSDGSFFLYSKLTVDKSRWQQGNVFSCSVMHEALHNRYTQKSLSLSP
chain 3: DIVMTQSPLSLPVTPGEPASISCRSSQSLVHSNRNTYLHWYQQKPGQAPRLLIYKVSNRFSGVPDRFSGSGSGTDFTLKISRVEAEDVGVYYCGQGTQVPYTFGQGTKLEIKRTVAAPSVFIFPPSDEQLKSGTASVVCLLNNFYPREAKVQWKVDNALQSGNSQESVTEQDSKDSTYSLSSTLTLSKADYEKHKVYACEVTHQGLSSPVTKSFNRGEC
B1 gave a dissociation constant Kd in assay [1] of 63.1 nM.

B2: CE115HA000 V11L/D72A/L78I/D101Q with GGSGGS inserted between Kabat 99 and 100, one-arm antibody (antibody)
chain 1: QVQLVESGGGLVQPGRSLRLSCAASGFTFSNAWMHWVRQAPGKGLEWVAQIKAKSNNYATYYAESVKGRFTISRADSKNSIYLQMNSLKTEDTAVYYCRYVHYGAGGSGGSYYGVQAWGQGTTVTVSSASTKGPSVFPLAPSSKSTSGGTAALGCLVKDYFPEPVTVSWNSGALTSGVHTFPAVLQSSGLYSLSSVVTVPSSSLGTQTYICNVNHKPSNTKVDKKVEPKSCDKTHTCPPCPAPEAAGGPSVFLFPPKPKDTLMISRTPEVTCVVVDVSHEDPEVKFNWYVDGVEVHNAKTKPREEQYASTYRVVSVLTVLHQDWLNGKEYKCKVSNKALPAPIEKTISKAKGQPREPQVYTLPPSRCELTKNQVSLSCAVKGFYPSDIAVEWESNGQPENNYKTTPPVLDSDGSFFLVSKLTVDKSRWQQGNVFSCSVMHEALHNHYTQKSLSLSPDYKDDDDK
chain 2: B1 chain 2
chain 3: B1 chain 3
Turning to B2, the Kd in assay [1] was 34.6 nM and 31.1 nM.

B3: CE115HA000 V11L/D72A/L78I/D101Q with GGGSGGGS inserted between Kabat 99 and 100, one-arm antibody (antibody)
chain 1: QVQLVESGGGLVQPGRSLRLSCAASGFTFSNAWMHWVRQAPGKGLEWVAQIKAKSNNYATYYAESVKGRFTISRADSKNSIYLQMNSLKTEDTAVYYCRYVHYGAGGGSGGGSYYGVQAWGQGTTVTVSSASTKGPSVFPLAPSSKSTSGGTAALGCLVKDYFPEPVTVSWNSGALTSGVHTFPAVLQSSGLYSLSSVVTVPSSSLGTQTYICNVNHKPSNTKVDKKVEPKSCDKTHTCPPCPAPEAAGGPSVFLFPPKPKDTLMISRTPEVTCVVVDVSHEDPEVKFNWYVDGVEVHNAKTKPREEQYASTYRVVSVLTVLHQDWLNGKEYKCKVSNKALPAPIEKTISKAKGQPREPQVYTLPPSRCELTKNQVSLSCAVKGFYPSDIAVEWESNGQPENNYKTTPPVLDSDGSFFLVSKLTVDKSRWQQGNVFSCSVMHEALHNHYTQKSLSLSPDYKDDDDK
chain 2: B1 chain 2
chain 3: B1 chain 3
Consider B3, for which the Kd in assay [1] was 41.3 nM and 37.5 nM.

B4: CE115HA000 V11L/D72A/L78I/D101Q with GGSGGGS inserted between Kabat 99 and 100, one-arm antibody (antibody)
chain 1: QVQLVESGGGLVQPGRSLRLSCAASGFTFSNAWMHWVRQAPGKGLEWVAQIKAKSNNYATYYAESVKGRFTISRADSKNSIYLQMNSLKTEDTAVYYCRYVHYGAGGSGGGSYYGVQAWGQGTTVTVSSASTKGPSVFPLAPSSKSTSGGTAALGCLVKDYFPEPVTVSWNSGALTSGVHTFPAVLQSSGLYSLSSVVTVPSSSLGTQTYICNVNHKPSNTKVDKKVEPKSCDKTHTCPPCPAPEAAGGPSVFLFPPKPKDTLMISRTPEVTCVVVDVSHEDPEVKFNWYVDGVEVHNAKTKPREEQYASTYRVVSVLTVLHQDWLNGKEYKCKVSNKALPAPIEKTISKAKGQPREPQVYTLPPSRCELTKNQVSLSCAVKGFYPSDIAVEWESNGQPENNYKTTPPVLDSDGSFFLVSKLTVDKSRWQQGNVFSCSVMHEALHNHYTQKSLSLSPDYKDDDDK
chain 2: B1 chain 2
chain 3: B1 chain 3
With B4, the Kd in assay [1] is 43.5 nM and 34.3 nM.

B5: dBBDu204 (antibody, IgG1, V domains shown)
VH: QVQLVESGGGLVQPGRSLRLSCAASGFTFSNAWMHWVRQAPGKGLEWVAQIKDRSNNYATYYAESVKGRFTISRDDSKNSIYLQMNSLKTEDTAVYYCHYVHYASASTVLPAFGVDAWGQGTTVTVSS
VL: DIVMTQSPLSLPVTPGEPASISCRSSQSLVHSNRNTYLHWYQQKPGQAPRLLIYKVSNRFSGVPDRFSGSGSGTDFTLKISRVEAEDVGVYYCGQGTQVPYTFGQGTKLEIK
notes: IgG1
With B5, the binding result in assay [2] is on record as “binds”.

B6: dBBDu174 (antibody, IgG1, V domains shown)
VH: QVQLVESGGGLVQPGRSLRLSCAASGFTFSSAWMHWVRQAPGKGLEWVAQIKDRASAYNAYYAESVKGRFTISRDDSKNSIYLQMNSLKTEDTAVYYCRYVHYPSYVSFLPYYGVDAWGQGTTVTVSS
VL: B5 VL
notes: IgG1
In the case of B6, the binding result in assay [2] is “binds”.

B7: dBBDu183 (antibody, IgG1, V domains shown)
VH: B5 VH with R54K, S55G, N57A, T60A, E64P
VL: B5 VL
notes: IgG1
As to B7, the binding result in assay [2] was “binds”.

B8: dBBDu139 (antibody, IgG1, V domains shown)
VH: QVQLVESGGGLVQPGRSLRLSCAASGFTFSNAWMHWVRQAPGKGLEWVAQIKDRGNAYNAYYAESVKGRFTISRDDSKNSIYLQMNSLKTEDTAVYYCRFVHYRHPLLHIQYGVDAWGQGTTVTVSS
VL: B5 VL
notes: IgG1
Take B8: the binding result in assay [2] was “binds”.

B9: dBBDu179 (antibody, IgG1, V domains shown)
VH: B5 VH with N57Q, E64P
VL: B5 VL
notes: IgG1
Turning to B9, the binding result in assay [2] is given as “binds”.

B10: dBBDu217 (antibody, IgG1, V domains shown)
VH: QVQLVESGGGLVQPGRSLRLSCAASGFTFSNAWMHWVRQAPGKGLEWVAQIKDRQQGYATYYAPSVKGRFTISRDDSKNSIYLQMNSLKTEDTAVYYCRFVHYHLAGYGYYGVDAWGQGTTVTVSS
VL: B5 VL
notes: IgG1
Regarding B10, the binding result in assay [2] is given as “binds”.

B11: dBBDu222 (antibody, IgG1, V domains shown)
VH: QVQLVESGGGLVQPGRSLRLSCAASGFTISSAWMHWVRQAPGKGLEWVAQIKDRANGYAAYYAPSVKGRFTISRDDSKNSIYLQMNSLKTEDTAVYYCRYVHYATAYDGFYGFGVDAWGQGTTVTVSS
VL: B5 VL
notes: IgG1
As to B11, in assay [2], the binding result is “binds”.

B12: dBBDu205 (antibody, IgG1, V domains shown)
VH: B5 VH with N56Q, N57L, T60A, E64P
VL: B5 VL
notes: IgG1
B12: the binding result in assay [2] was “binds”.
